Reference: US20160279250, “METHODS FOR STRUCTURAL DETERMINATION OF SELENIUM DERIVATIZED NUCLEIC ACID COMPLEXES” (SeNA Research ,Inc., published 2016)

Target: RNase H (D132N, inactive mutant) (Bacillus halodurans, UniProt Q9KEI9 Q9KEI9:59-196, D132N)
Assay: structure; PDB 3TWH, 1.80 A; 5 mM MgCl2, MES pH 6.5, PEG 20000; substrate complex
Conditions: tags: expressed in BL21(DE3) pLysE, 5 bp duplex with one-base overhang at both ends
Method: By using the sitting-drop vapor diffusion method at 25° C., the crystals were readily obtained from a mixture of the crystallization screen [Buffer: 0.1 M MES, pH 6.5; precipitant: 12% (w/v), PEG 20000].
We have synthesized Se-modified DNAs to investigate the DNA/RNA/RNase H complex. […] The complex of RNase H/RNA/Se-DNA (5′-UCGACA-3′/5′-AT-^SeG-TC-^SeGp-3′) was crystallized in a buffer containing 0.1 M MES (pH 6.5) and precipitant (12% w/v, PEG 20000). The crystals were also grown using the sitting drop vapor diffusion method. The crystals appeared within a week and reached their maximum size within a month. Two crystals were used to collect the MAD/SAD data sets. […] After the SAD or MAD dataset is collected from a single crystal, the selenium atoms can be located by direct methods and the phase can be determined similarly to the well-established protein strategy (Elkayam et al., Cell, 150:100-110 (2012); Ferre-D'Amare et al., Nature, 395:567-574 (1998); Hendrickson, Science, 254:51-58 (1991); Hendrickson, Trends Biochem. Sci., 25:637-643 (2000); Schirle and MacRae, Science, 336:1037-1040 (2012); Yang et al., Science 249:1398-1405 (1990)).
The Se-complex structure was finally determined (3TWH; 1.80 Å resolution; FIG. 1) via the selenium anomalous signal and MAD phasing. […] Moreover, the Se-complex structure has been determined by both MAD phasing and molecular replacement. […]

B1: Se-DNA/RNA duplex (DNA-Se, double Se) (DNA:RNA)
DNA: ATGTCG
RNA: UCGACA
modifications: 6-Se-dG at DNA positions 3 and 6; DNA 3'-phosphate
binding result: binds
